From patent US20250043302A1, “MUTATED HYDROXYPHENYLPYRUVATE DIOXYGENASE POLYPEPTIDE, AND CODING GENE AND USE THEREOF” (BEIJING DABEINONG BIOTECHNOLOGY CO., LTD., priority 2021, published 2025)

How the values were obtained:
Format in all cases: in vivo
[1] = test system: Arabidopsis thaliana T1 plants; experiment: Topramezone tolerance of transgenic Arabidopsis thaliana T1 plants (spray, bleached leaf area grade, damage score); settings: 7 DAT, Table 4; for Classification and statistics of the grade of pesticide damage: Grade 0 / Classification and statistics of the grade of pesticide damage: Grade 1 / Classification and statistics of the grade of pesticide damage: Grade 2 / Classification and statistics of the grade of pesticide damage: Grade 3: number of plants; for Scores: pesticide damage score 0-100
Summary of the method: (§1)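 Damage graded 0–3 from the proportion of bleached leaf area 7 days after spraying. Plants were glufosinate-selected T1 lines, 18 days after sowing, plus vector and wild-type controls. Rates: mesotrione 52.5–420, isoxaflutole 35–280, topramezone 25–200 g ai/ha, with water (0×).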

[2] = test system: Arabidopsis thaliana T1 plants; experiment: Mesotrione tolerance of transgenic Arabidopsis thaliana T1 plants (spray, bleached leaf area grade, damage score); design: Scores: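 damage score 0-100 computed as Σ(N×S)/(T×M)×100 over grades 0-3 with higher meaning more damage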; settings: Arabidopsis thaliana T1 plants; for Grade 0 (classification and statistics of the grade of pesticide damage; number of plants) / Grade 1 (classification and statistics of the grade of pesticide damage; number of plants) / Grade 2 (classification and statistics of the grade of pesticide damage; number of plants) / Grade 3 (classification and statistics of the grade of pesticide damage; number of plants): 16 plants
Summary of the method: as §1

[3] = test system: Arabidopsis thaliana T1 plants; experiment: Isoxaflutole tolerance of transgenic Arabidopsis thaliana T1 plants (spray, bleached leaf area grade, damage score); design: Scores (pesticide damage): scale not given here; settings: spray, Arabidopsis thaliana T1 plants; for Classification and statistics of the grade of pesticide damage: Grade 0 (number of plants) / Classification and statistics of the grade of pesticide damage: Grade 1 (number of plants) / Classification and statistics of the grade of pesticide damage: Grade 2 (number of plants) / Classification and statistics of the grade of pesticide damage: Grade 3 (number of plants): 16 plants
Summary of the method: as §1

[4] = isoxaflutole 35 g ai/ha (0.5x field concentration)
[5] = isoxaflutole 70 g ai/ha (1x field concentration)

B1: GsHPPDm-F372A-02: nucleotide sequence encoding Gossypium hirsutum HPPD with F372A; vector DBN11739 (nucleic acid)
DNA: ATGGTTCAAACAAATCAATCTGGTTCTGGGAATGATTTCAAGCTGGTTGGTTTCTCAAATTTTGTGCGTAGCAATCCCAAATCAGACCGCTTCACGGTCAAGAGATTCCACCACATTGAATTTTGGTGCACTGATGCCACTAATGTGGCGAGGAGGTTTTCATGGGGTTTAGGGATGCAGTTCGTCGCCAAGAGTGACCTCTCCACAGGAAATTTGACGCATGCAAGCTACCTGCTGCGGAGCCGCGACTTGAATTTCCTGTTTACAGCACCATATTCACCCAGTATTGCAGTTGCTCAAAACCTTTCGCCACAAAGCACTGCTTCCATACCTTCATTTGATCACTCGCTTTGTCGGTCCTTTGCTGCAACACATGGACTTGGCGTCAGAGCAATTGCCATCGAGGTGGACGACGCCGAAACTGCCTTCACCACGAGCGTGACACATGGCGCGCTCCCTTTTTGTCCACCAACACCACTAGGAGATGTGGCTACAATTGCTGAAGTTAAATTATATGGTGATGTTGTGCTCAGATATGTTTCTTACACCACAACCATCAACTCCGACCATGATTTTCTGCCTGGTTTTGAGAAGATTGAAGATACTCTATCGTATCCTTTGGATTATGGCCTGCGTCGGCTCGATCATGCTGTTGGCAACGTACCTGAATTAGGTCCTGCTGTATCTTATGTGAAATCTTTTACTGGGTTCCATGAGTTTGCAGAGTTCACCGCTGAGGATGTAGGAACAAGTGAATCTGGGCTGAACTCAGTTGTTTTGGCCAACAATGAGGAAATGGTCCTCTTACCAATGAACGAGCCGGTGTTCGGCACTAAGCGCAAATCTCAAATACAGACCTACTTGGAGCACAATGAAGGAGCTGGTGTGCAGCACCTCGCCCTCGTCTCGGAGGACATCTTCAAAACTTTAAGGGAGATGAGGAAACGATCCTTTGTGGGAGGATTTGAATTCATGCCTTCTCCGCCGCCGACATACTACAAGAAGCTCAAGCAGCGCGCGGGGGACATTTTGTCTGATGAGCAGATCAAGGAGTGTGAAGAGCTTGGGATTCTTGTTGATAGAGATGATCAAGGAACGCTTCTGCAGATAGCCACCAAGCCCGTCGGCGACCGGCCTACTATATTCATTGAGATCATCCAGAGAATTGGTTGCATGGTGAAGGATGAAGAAGGGAAACAGTACCAGAAGGGCGGCTGCGGCGGGTTTGGAAAAGGAAACTTCAGTGAGCTGTTTAAAAGTATAGAGGAGTATGAAAAGAGCTTGGAAGCAAAACAATCACAAAATCCATGA
modifications: GsHPPDm-F372A-02 Nucleotide Sequence
notes: vector DBN11739
For B1, the “Classification and statistics of the grade of pesticide damage: Grade 0” value ([1]; topramezone 25 g ai/ha (1×)) was 16, the “Classification and statistics of the grade of pesticide damage: Grade 1” value ([1]; topramezone 25 g ai/ha (1×)) was 0 and the “Classification and statistics of the grade of pesticide damage: Grade 2” value ([1]; topramezone 25 g ai/ha (1×)) was 0. The “Classification and statistics of the grade of pesticide damage: Grade 3” value ([1]; topramezone 25 g ai/ha (1×)) was 0, the “Classification and statistics of the grade of pesticide damage: Grade 0” value ([1]; topramezone 100 g ai/ha (4×)) was 0 and the “Classification and statistics of the grade of pesticide damage: Grade 1” value ([1]; topramezone 100 g ai/ha (4×)) was 0. The “Classification and statistics of the grade of pesticide damage: Grade 2” value ([1]; topramezone 100 g ai/ha (4×)) was 0, the “Classification and statistics of the grade of pesticide damage: Grade 3” value ([1]; topramezone 100 g ai/ha (4×)) was 16 and the Scores ([1]; topramezone 25 g ai/ha (1×)) was 0. The Scores ([1]; topramezone 100 g ai/ha (4×)) was 100, the Resistance evaluation ([1]; topramezone 25 g ai/ha (1×)) was “highly” and the Resistance evaluation ([1]; topramezone 100 g ai/ha (4×)) was “non-resistant (non-resistant plants (scores 68-100))”. For the same molecule, the Resistance evaluation ([2]; mesotrione 52.5 g ai/ha) was “Poorly resistant”, the Scores ([2]; mesotrione 52.5 g ai/ha) was 54 and the “Grade 0 (classification and statistics of the grade of pesticide damage; number of plants)” value ([2]; mesotrione 52.5 g ai/ha) was 0. The “Grade 1 (classification and statistics of the grade of pesticide damage; number of plants)” value ([2]; mesotrione 52.5 g ai/ha) was 8, the “Grade 2 (classification and statistics of the grade of pesticide damage; number of plants)” value ([2]; mesotrione 52.5 g ai/ha) was 6 and the “Grade 3 (classification and statistics of the grade of pesticide damage; number of plants)” value ([2]; mesotrione 52.5 g ai/ha) was 2. For the same molecule, the Resistance evaluation ([2]; mesotrione 105 g ai/ha) was “Non-resistant”, the Scores ([2]; mesotrione 105 g ai/ha) was 100 and the “Grade 0 (classification and statistics of the grade of pesticide damage; number of plants)” value ([2]; mesotrione 105 g ai/ha) was 0. For the same molecule, the “Grade 1 (classification and statistics of the grade of pesticide damage; number of plants)” value ([2]; mesotrione 105 g ai/ha) was 0, the “Grade 2 (classification and statistics of the grade of pesticide damage; number of plants)” value ([2]; mesotrione 105 g ai/ha) was 0 and the “Grade 3 (classification and statistics of the grade of pesticide damage; number of plants)” value ([2]; mesotrione 105 g ai/ha) was 16. For the same molecule, the Resistance evaluation [3, 4] was “Moderately”, the “Scores (pesticide damage)” value [3, 4] was 33 and the “Classification and statistics of the grade of pesticide damage: Grade 0 (number of plants)” value [3, 4] was 3. The “Classification and statistics of the grade of pesticide damage: Grade 1 (number of plants)” value [3, 4] was 10, the “Classification and statistics of the grade of pesticide damage: Grade 2 (number of plants)” value [3, 4] was 3 and the “Classification and statistics of the grade of pesticide damage: Grade 3 (number of plants)” value [3, 4] was 0. The Resistance evaluation [3, 5] was “Non-resistant”, the “Scores (pesticide damage)” value [3, 5] was 100 and the “Classification and statistics of the grade of pesticide damage: Grade 0 (number of plants)” value [3, 5] was 0. For the same molecule, the “Classification and statistics of the grade of pesticide damage: Grade 1 (number of plants)” value [3, 5] was 0, the “Classification and statistics of the grade of pesticide damage: Grade 2 (number of plants)” value [3, 5] was 0 and the “Classification and statistics of the grade of pesticide damage: Grade 3 (number of plants)” value [3, 5] was 16.
